Assay [1] concerns the target MBP tagged 53BP1 fragment (a.a. 1484-1603). Kind of assay: BLI, fold change Ka of Ubv/Ka of CM1.
Assay [2] shares this target. Kind of assay: BLI, KA (M-1), log axis. For orientation: In BLI a coated tip is dipped into the sample, and binding shifts an interference pattern.

B1: CM149 (designed binder)
Ubv: MHHHHHHGGSGYLIFVRMLTGKMIELEVMPSDTIEVIKAKIQDHEGIPLDEQHLTFQGTLLDDGYTLGDYNLLIDPKKMPLLRMQ
As to B1, the binding result in assay [1] was “binds”.

B2: CM149-DM (designed binder)
Ubv: MHHHHHHGGSGYLIFVRMLTGKMIELEVMPSDTIEVIKAKIQDHEGIPLDEQHLTFQGTLLDDGYTLGDYNLLIDPKKMLVLRMQ
notes: also called CM210
Turning to B2, the binding result in assay [2] is “binds”.
